Experimental data published in patent US20040086528A1 (PROGENICS PHARMACEUTICALS, published 2004).

T1: CCR5 Q93A, HA-tagged (human, UniProt P51681 1-352)
T1 sequence: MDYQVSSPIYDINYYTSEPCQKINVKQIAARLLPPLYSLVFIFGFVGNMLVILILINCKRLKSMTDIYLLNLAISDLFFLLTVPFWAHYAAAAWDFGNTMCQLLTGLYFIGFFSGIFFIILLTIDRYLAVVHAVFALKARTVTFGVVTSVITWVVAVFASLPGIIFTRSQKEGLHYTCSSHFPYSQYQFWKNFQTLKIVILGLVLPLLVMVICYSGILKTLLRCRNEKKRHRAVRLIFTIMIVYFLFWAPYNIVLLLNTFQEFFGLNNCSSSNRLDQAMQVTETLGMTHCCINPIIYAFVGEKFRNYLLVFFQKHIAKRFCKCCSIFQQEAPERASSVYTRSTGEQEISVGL

T2: CCR5 E18A, HA-tagged (human, UniProt P51681 1-352)
T2 sequence (looked up): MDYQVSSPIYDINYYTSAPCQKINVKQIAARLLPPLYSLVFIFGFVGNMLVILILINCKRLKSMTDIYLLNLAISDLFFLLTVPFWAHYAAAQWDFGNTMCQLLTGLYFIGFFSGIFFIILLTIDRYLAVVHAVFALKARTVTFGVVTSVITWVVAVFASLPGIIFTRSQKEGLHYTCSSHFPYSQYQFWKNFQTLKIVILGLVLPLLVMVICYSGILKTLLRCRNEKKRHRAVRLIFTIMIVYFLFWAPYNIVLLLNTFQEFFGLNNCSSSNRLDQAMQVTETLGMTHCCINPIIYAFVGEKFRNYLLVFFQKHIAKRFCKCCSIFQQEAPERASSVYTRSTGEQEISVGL

T3: CCR5 D11A, HA-tagged (human, UniProt P51681 1-352)
T3 sequence (looked up): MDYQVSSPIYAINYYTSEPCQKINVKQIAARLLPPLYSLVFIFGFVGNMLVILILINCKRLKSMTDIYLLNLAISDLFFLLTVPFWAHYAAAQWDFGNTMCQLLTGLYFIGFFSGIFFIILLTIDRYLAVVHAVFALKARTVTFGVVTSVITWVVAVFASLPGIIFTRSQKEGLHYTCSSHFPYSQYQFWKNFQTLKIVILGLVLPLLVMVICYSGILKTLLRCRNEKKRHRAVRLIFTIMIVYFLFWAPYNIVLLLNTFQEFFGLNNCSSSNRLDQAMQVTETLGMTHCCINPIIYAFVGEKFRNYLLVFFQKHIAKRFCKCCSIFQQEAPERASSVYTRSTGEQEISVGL

T4: CCR5 H181A, HA-tagged (human, UniProt P51681 1-352)
T4 sequence: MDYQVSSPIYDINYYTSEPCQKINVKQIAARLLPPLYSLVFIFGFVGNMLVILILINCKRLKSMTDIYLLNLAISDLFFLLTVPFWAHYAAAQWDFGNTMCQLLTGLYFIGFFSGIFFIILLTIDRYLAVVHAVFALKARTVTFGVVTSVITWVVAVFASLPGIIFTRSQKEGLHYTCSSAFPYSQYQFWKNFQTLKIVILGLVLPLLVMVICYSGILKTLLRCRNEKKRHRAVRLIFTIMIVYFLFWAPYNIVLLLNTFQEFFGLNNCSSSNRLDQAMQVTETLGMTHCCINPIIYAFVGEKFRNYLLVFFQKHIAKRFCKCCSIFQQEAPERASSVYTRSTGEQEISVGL

T5: CCR5 K26A, HA-tagged (human, UniProt P51681 1-352)
T5 sequence: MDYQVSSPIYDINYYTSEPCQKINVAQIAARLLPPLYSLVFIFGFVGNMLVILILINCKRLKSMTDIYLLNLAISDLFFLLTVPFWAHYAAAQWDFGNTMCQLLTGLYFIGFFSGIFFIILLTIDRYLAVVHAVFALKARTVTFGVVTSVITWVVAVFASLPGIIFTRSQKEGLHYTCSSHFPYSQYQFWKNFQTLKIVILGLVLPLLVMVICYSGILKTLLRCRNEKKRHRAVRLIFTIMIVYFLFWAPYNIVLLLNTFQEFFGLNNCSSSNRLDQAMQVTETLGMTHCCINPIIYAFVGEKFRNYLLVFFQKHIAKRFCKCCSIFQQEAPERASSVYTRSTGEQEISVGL

T6: CCR5 R31A, HA-tagged (human, UniProt P51681 1-352)
T6 sequence: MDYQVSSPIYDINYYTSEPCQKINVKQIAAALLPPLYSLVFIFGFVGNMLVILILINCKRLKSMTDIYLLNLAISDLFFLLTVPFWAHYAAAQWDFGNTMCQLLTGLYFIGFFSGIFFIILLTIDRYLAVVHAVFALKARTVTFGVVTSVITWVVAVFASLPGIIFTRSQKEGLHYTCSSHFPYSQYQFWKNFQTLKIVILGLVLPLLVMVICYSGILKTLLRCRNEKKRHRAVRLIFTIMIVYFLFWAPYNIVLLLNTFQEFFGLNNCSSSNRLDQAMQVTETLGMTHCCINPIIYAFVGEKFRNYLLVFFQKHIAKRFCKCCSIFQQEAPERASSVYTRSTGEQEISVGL

T7: CCR5 K171A/E172A, HA-tagged (human, UniProt P51681 1-352)
T7 sequence: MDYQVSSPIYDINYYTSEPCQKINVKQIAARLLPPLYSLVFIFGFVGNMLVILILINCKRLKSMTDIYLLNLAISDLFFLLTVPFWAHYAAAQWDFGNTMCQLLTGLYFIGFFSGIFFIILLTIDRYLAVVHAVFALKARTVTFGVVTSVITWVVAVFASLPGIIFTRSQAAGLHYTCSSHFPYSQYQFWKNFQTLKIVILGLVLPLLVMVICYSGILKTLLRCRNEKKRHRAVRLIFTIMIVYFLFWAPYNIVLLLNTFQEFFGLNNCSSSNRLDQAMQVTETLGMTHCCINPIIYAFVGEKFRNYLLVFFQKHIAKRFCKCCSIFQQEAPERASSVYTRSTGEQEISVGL


Legend:
Assay in all cases: cell-based or functional assay
CCR5 Q93A, HA-tagged = target: T1, CCR5 Q93A, HA-tagged
CCR5 E18A, HA-tagged = target: T2, CCR5 E18A, HA-tagged
CCR5 D11A, HA-tagged = target: T3, CCR5 D11A, HA-tagged
CCR5 H181A, HA-tagged = target: T4, CCR5 H181A, HA-tagged
CCR5 K26A, HA-tagged = target: T5, CCR5 K26A, HA-tagged
CCR5 R31A, HA-tagged = target: T6, CCR5 R31A, HA-tagged
[1] = target: wild-type CCR5, HA-tagged at the C-terminus (human, UniProt P51681 1-352)
[2] = target: T7, CCR5 K171A/E172A, HA-tagged

Binder	relative % inhibition of NLluc/JR-FL entry into U87MG-CD4 cells by 2 µg/ml chemokine (wild-type = 100) (CCR5 Q93A, HA-tagged) [%]	relative % inhibition of NLluc/JR-FL entry into U87MG-CD4 cells by 2 µg/ml chemokine (wild-type = 100) (CCR5 E18A, HA-tagged) [%]	relative % inhibition of NLluc/JR-FL entry into U87MG-CD4 cells by 2 µg/ml chemokine (wild-type = 100) (CCR5 D11A, HA-tagged) [%]	relative % inhibition of NLluc/JR-FL entry into U87MG-CD4 cells by 2 µg/ml chemokine (wild-type = 100) (CCR5 H181A, HA-tagged) [%]	relative % inhibition of NLluc/JR-FL entry into U87MG-CD4 cells by 2 µg/ml chemokine (wild-type = 100) (CCR5 K26A, HA-tagged) [%]	relative % inhibition of NLluc/JR-FL entry into U87MG-CD4 cells by 2 µg/ml chemokine (wild-type = 100) (CCR5 R31A, HA-tagged) [%]	relative % inhibition of NLluc/JR-FL entry into U87MG-CD4 cells by 2 µg/ml chemokine (wild-type = 100) [1] [%]	relative % inhibition of NLluc/JR-FL entry into U87MG-CD4 cells by 2 µg/ml chemokine (wild-type = 100) [2] [%]
macrophage inflammatory protein (MIP)-1β, recombinant human (ligand, UniProt P13236 24-92, looked up) APMGSDPPTACCFSYTARKLPRNFVVDYYETSSLCSQPAVVFQTKRSKQVCADPSESWVQEYVYDLELN	97	100	41	53	97	2	100	97
RANTES, recombinant human (ligand) SPYSSDTTPCCFAYIARPLPRAHIKEYFYTSGKCSNPAVVFVTRKNRQVCANPEKKWVREYINSLEMS	114	62	7	39	100	-16	100	107
